Measurements taken from FireProtDB (doi:10.1021/bi980431i).

Settings: Homo sapiens; pH 2.7; Thermal; DSC; glycine 0.05 M; reversible: yes; whole UniProt chain shown

B1: Lysozyme C wild type, P61626 (protein)
chain: MKALIVLGLVLLSVTVQGKVFERCELARTLKRLGMDGYRGISLANWMCLAKWESGYNTRATNYNAGDRSTDYGIFQINSRYWCNDGKTPGAVNACHLSCSALLQDNIADAVACAKRVVRDPQGIRAWVAWRNRCQNRDVRQYVQGCGV
Tm: 64.9 °C | heat capacity change of unfolding: 1.58 kcal/mol/K | unfolding enthalpy (calorimetric): 114 kcal/mol | unfolding enthalpy (van 't Hoff): 120 kcal/mol
